Measurements taken from patent US20120027773A1 (AVEO PHARMACEUTICALS, published 2012).

Experiments:
[1] = biological target: T1, delta 160 RON variant (cell surface) (human, UniProt Q04912 25-1400); test: FACS, 10 ug/ml antibody, HT-29 cells, 4 C
T1 construct: whole, on cells; Splice variant; also called delta 160 variant
Procedure: Binding to cell surface wild-type RON and delta 160 RON at 4° C. was determined for antibodies 07F01, 12B11, 17F06, 18H09, and 29B06, using FACS. Cells expressing wild-type RON (PC3), and cells expressing delta 160 RON (HT-29), were harvested using cell dissociation buffer (Invitrogen), washed twice with FACS buffer (0.5% BSA PBS) and treated with CytoQ Antibody diluent and FC receptor block (Innovex). Purified antibodies were diluted at a concentration of 10 μg/ml, in FACS buffer. Cells were incubated with 100 μl of antibody mix for one hour, washed with FACS buffer three times, and incubated for 45 minutes with goat anti-mouse PE conjugated antibody (Jackson Immunoresearch Laboratories). Cells were washed three times with FACS buffer, resuspended in 300 μl of FACS buffer and analyzed using a Beckman Coulter Cytomics FC 500 FACS instrument.

[2] = biological target: T2, recombinant human RON SEMA and PSI domains (human, UniProt Q04912 25-571); test: ECL competition assay: antibody titrated on plate-coated hRON SEMA+PSI; blocked ligand MSP, detected with biotinylated anti-MSP antibody
T2 construct: domain: SEMA+PSI; Commercial protein (R&D Systems); also called rhRON SEMA+PSI; hRON SEMA+PSI
Procedure: (§1) The biochemical neutralization assay measures inhibition of MSP binding to hRON by antibodies in hybridoma supernatants, using electrochemiluminescence (ECL). MA2400 96-well high binding plates (Meso Scale Discovery) were coated with 25 μl of 0.42 μg/mL hRON SEMA+PSI (an N-terminal portion of the ECD of hRON; R&D Systems) in PBS for one hour at room temperature with agitation. The plates were washed four times with PBS+0.1% Tween-20 (PBST), and blocked with 150 μl of charcoal-stripped fetal bovine serum (FBS) (Gibco). The hybridoma supernatant were added and incubated for 45 minutes at room temperature. After incubation, 5 μl of MSP (3 μg/mL) in charcoal stripped FBS was added to each well, and incubated for 45 minutes. The plate was washed four times with PBST, and 25 μl of 1 μg/mL biotinylated anti-MSP antibody (R&D Systems) was added to the plates for one hour at room temperature with agitation. The plates were washed four times with PBST, and incubated with 25 μl of 1 μg/mL ST-streptavidin (Meso Scale Discovery) for one hour at room temperature with agitation. The plates were washed four times with PBST, and 150 μl read buffer (Meso Scale Discovery) was added to each well before the plates were analyzed on a Sector Imager 2400 (Meso Scale Discovery) instrument. Antibodies 07F01, 18H09 and 29B06 each blocked MSP binding to hRON SEMA+PSI in this neutralization assay.
(§2) Antibodies 07F01, 12B11, 17F06, 18H09, and 29B06 were tested for inhibition of MSP binding to hRON SEMA+PSI, as measured by electrochemiluminescence (ECL) assay as described in Example 3. The antibodies (concentration range: 0.006-10 μg/mL) were incubated for 45 minutes at room temperature.

[3] = biological target: T3, human wild-type RON (cell surface) (human, UniProt Q04912 25-1400); test: FACS titration on PC3 cells, 4 C
T3 construct: whole, on cells; also called Human RON; wt RON
Procedure: (§3) Binding to cell surface human wild-type RON and the delta 160 RON variant by antibodies 07F01, Sh07F01-62, 29B06, and Sh29B06-78 was measured at 4° C., using Fluorescence Activated Cell Sorting (FACS). PC3 cells expressing the human wild-type RON, and HT29 cells expressing the delta 160 variant, were harvested using cell dissociation buffer (Invitrogen), washed twice with FACS buffer (PBS with 0.5% BSA), and treated 10 minutes with Cyto Q Antibody diluent and FC receptor block (Innovex Biosciences, Richmond, Calif.). Purified antibodies were diluted in FACS buffer over a concentration range from 0.01 nM to 25 nM. Cells were incubated with 100 μl of antibody for one hour, washed with FACS buffer three times, and incubated for 45 minutes with goat anti-mouse PE-conjugated antibody (Jackson ImmunoResearch Laboratories, West Grove, Pa.) or donkey anti-human PE-conjugated antibody (Jackson ImmunoResearch Laboratories, West Grove, Pa.). Cells were washed three times with FACS buffer, resuspended in 300 μl of FACS buffer, and analyzed using a Beckman Coulter Cytomics FC 500 FACS instrument. All four antibodies were compared in the same experiment.

[4] = biological target: T1, delta 160 RON variant (cell surface); test: FACS titration on HT29 cells, 4 C
Procedure: as §3

[5] = biological target: T2, recombinant human RON SEMA and PSI …; test: ECL competition, MSP binding to coated hRON SEMA+PSI; competitor MSP; average
Procedure: as §1, §2

[6] = biological target: T2, recombinant human RON SEMA and PSI …; test: SPR, Ab captured on anti-mouse IgG, 25 C, AVG
Procedure: The binding affinities and kinetics of binding of antibodies 07F01, 29B06, 17F06, 18H09, and 12B11 to recombinant human RON-ECD/mFc fusion protein (rhRON ECD/mFc) and recombinant human RON SEMA and PSI domains (rhRON SEMA+PSI) (R&D Systems, Inc., Minneapolis, Minn.) were measured by surface plasmon resonance, using a Biacore T100 instrument (GE Healthcare, Piscataway, N.J.).
Rabbit anti-mouse IgGs (GE Healthcare) were immobilized on carboxymethylated dextran CM4 sensor chips (GE Healthcare) by amine coupling, according to a standard protocol. Analyses were performed at 25° C. and 37° C., using PBS containing 0.05% surfactant P20 as running buffer. The antibodies were captured in individual flow cells at a flow rate of 10 μl/min. Injection time was varied for each antibody to yield an Rmax between 30 and 60 RU. 250 μg/mL mouse Fc were injected at 30 μl/min for 120 seconds to block non-specific binding of antibodies to Fc portion of the protein when needed. Buffer, rhRon ECD/mFc or rhRON SEMA+PSI diluted in running buffer was injected sequentially over a reference surface (no antibody captured) and the active surface (antibody to be tested) for 300 seconds at 60 μl/minute. The dissociation phase was monitored for up to 3600 seconds. The surface was then regenerated with two 60-second injections of 10 mM Glycine-HCl, pH 1.7, at a flow rate of 60 μl/min. The rhRON ECD/mFc or rhRON SEMA+PSI concentration range tested was 0.625 nM to 20 nM.

Row | HT-29 % cell surface binding [1] [%] | IC50 (read off the curve) [2] [nM] | Kd [3] [nM] | Kd [4] [nM] | Maximum Neutralization (%) [5] [%] | Kd [6] [nM] | koff [6] [s⁻¹] | kon [6] [M⁻¹ s⁻¹] | Binder
1 | 99.1 | ~0.3 | 0.053 | 0.1 | 88.3 | 0.088 | 0.00036 | 5.2e+06 | 07F01 (antibody, mouse IgG1, kappa, V domains shown, Murine hybridoma monoclonal, IgG1/kappa; also called mu07F01; antibody 07F01) VH: EVKLLESGGGLVQPGGSLKLSCAASGFDFSRHWMSWVRLAPGKGLEWIAEINPDSRTINYTPSLKEKFIISRDNAKNSLFLQMNRVRSEDTALYYCARRVRIHYYGAMDCWGQGTSVTVSS VL: DIVLTQSQKIVSTSVGARVSVTCKASQNVGSSLVWYQQKPGQSPKTLIYSASFRYSGVPDRFTGSGSGTDFTLTISNVQSEDLADYFCQQYNNYPLTFGAGTKLELKR
2 | 99 | ~1 | 0.136 | 0.167 | 87.6 | 0.18 | 7e-05 | 420000 | 29B06 (antibody, mouse IgG1, kappa, Murine hybridoma monoclonal, IgG1/kappa; also called mu29B06; antibody 29B06) heavy: EVQLQESGPSLVKPSQTLSLTCSVTGDSITSGYWNWIRKFPGNKLEYMGYISYSGKTYYNPSLKSRISITRDTSKNHYYLQLISVTAEDTATYYCARSKYDYAMDYWGQGTSVTVSSAKTTPPSVYPLAPGSAAQTNSMVTLGCLVKGYFPEPVTVTWNSGSLSSGVHTFPAVLQSDLYTLSSSVTVPSSTWPSETVTCNVAHPASSTKVDKKIVPRDCGCKPCICTVPEVSSVFIFPPKPKDVLTITLTPKVTCVVVDISKDDPEVQFSWFVDDVEVHTAQTQPREEQFNSTFRSVSELPIMHQDWLNGKEFKCRVNSAAFPAPIEKTISKTKGRPKAPQVYTIPPPKEQMAKDKVSLTCMITDFFPEDITVEWQWNGQPAENYKNTQPIMDTDGSYFVYSKLNVQKSNWEAGNTFTCSVLHEGLHNHHTEKSLSHSPGK light: not shown
